Reference: patent US20080045455A1 (TRANSTECH PHARMA, published 2008)
Values belong to the molecule of their own block, whether it stands above or below them.

Legend:
[1] = target: Fc receptor on THP-1 cells; test: cell-based or functional assay
BSA = target: T1, BSA (UniProt P02769 25-607); test: ELISA, BSA-coated Maxisorb plate, dilutions of fusion protein, anti-human IgG1 immunodetection complex, A405
T1 construct: also called BSA coating alone; BSA+wash
Method: Known RAGE ligands were coated onto the surface of Maxisorb plates at a concentration of 5 micrograms per well. Plates were incubated at 4° C. overnight. Following ligand incubation, plates were aspirated and a blocking buffer of 1% BSA in 50 mM imidizole buffer (pH 7.2) was added to the plates for 1 hour at room temperature. The plates were then aspirated and/or washed with wash buffer (20 mM Imidizole, 150 mM NaCl, 0.05% Tween-20, 5 mM CaCl₂ and 5 mM MgCl₂, pH 7.2). […] The RAGE fusion protein was added at increasing dilutions of the initial sample. The RAGE fusion protein was allowed to incubate with the immobilized ligand at 37° C. for one hour after which the plate was washed and assayed for binding of the RAGE fusion protein. Binding was detected by the addition of an immunodetection complex containing a monoclonal mouse anti-human IgG1 diluted 1:11,000 to a final assay concentration (FAC) of 21 ng/100 μL, a biotinylated goat anti-mouse IgG diluted 1:500, to a FAC of […], and an avidin-linked alkaline phosphatase. […] Binding of the complex to the immobilized RAGE fusion protein was quantified by measuring conversion of PNPP to para-nitrophenol (PNP) which was measured spectrophotometrically at 405 nm.

T1 sequence (P02769 25-607 limits assumed): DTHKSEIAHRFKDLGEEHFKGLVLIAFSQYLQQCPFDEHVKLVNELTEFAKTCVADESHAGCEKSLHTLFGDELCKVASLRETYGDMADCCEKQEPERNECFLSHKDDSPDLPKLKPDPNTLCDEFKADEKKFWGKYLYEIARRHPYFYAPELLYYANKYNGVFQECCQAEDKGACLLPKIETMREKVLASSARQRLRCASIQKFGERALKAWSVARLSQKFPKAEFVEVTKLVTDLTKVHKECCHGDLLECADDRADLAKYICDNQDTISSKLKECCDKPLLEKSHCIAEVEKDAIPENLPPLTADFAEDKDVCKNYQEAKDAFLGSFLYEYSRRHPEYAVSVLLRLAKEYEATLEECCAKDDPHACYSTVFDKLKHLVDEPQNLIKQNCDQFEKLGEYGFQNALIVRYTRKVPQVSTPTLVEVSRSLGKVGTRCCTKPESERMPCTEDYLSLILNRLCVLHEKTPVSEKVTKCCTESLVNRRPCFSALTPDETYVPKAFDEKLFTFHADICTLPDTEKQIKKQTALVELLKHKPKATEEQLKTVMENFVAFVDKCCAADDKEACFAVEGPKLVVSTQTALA

TNF-α secreted by THP-1 cells on wells coated with 10 ug/well heat aggregated protein [1]: > 40 ng/well
Molecule: human IgG1 (heat aggregated) (antibody)

binding result (BSA): no binding
B1: RAGE fusion protein TTP-4000 (Fc fusion)
chain: QNITARIGEPLVLKCKGAPKKPPQRLEWKLNTGRTEAWKVLSPQGGGPWDSVARVLPNGSLFLPAVGIQDEGIFRCQAMNRNGKETKSNYRVRVYQIPGKPEIVDSASELTAGVPNKVGTCVSEGSYPAGTLSWHLDGKPLVPNEKGVSVKEQTRRHPETGLFTLQSELMVTPARGGDPRPTFSCSFSPGLPRHRALRTAPIQPRVWEPVPLEEVQLVVEPEGGAVAPPSVFLFPPKPKDTLMISRTPEVTCVVVDVSHEDPEVKFNWYVDGVEVHNAKTKPREEQYNSTYRVVSVLTVLHQDWLNGKEYKCKVSNKALPAPIEKTISKAKGQPREPQVYTLPPSRDELTKNQVSLTCLVKGFYPSDIAVEWESNGQPENNYKTTPPVLDSDGSFFLYSKLTVDKSRWQQGNVFSCSVMHEALHNHYTQKSLSLSPGK
modifications: N-terminal residue glutamine (Q) or pyroglutamic acid (pE) or a mixture thereof; glycosylation sites at N2 and N288 (numbering of SEQ ID NO: 34 or 56); C-terminal residue of CH3 may be cleaved off
notes: Produced in CHO cells; also called TT4; four domain RAGE fusion protein

binding result (BSA): no binding
B2: RAGE fusion protein TTP-3000 (Fc fusion)
chain: QNITARIGEPLVLKCKGAPKKPPQRLEWKLNTGRTEAWKVLSPQGGGPWDSVARVLPNGSLFLPAVGIQDEGIFRCQAMNRNGKETKSNYRVRVYQIPGKPEIVDSASELTAGPSVFLFPPKPKDTLMISRTPEVTCVVVDVSHEDPEVKFNWYVDGVEVHNAKTKPREEQYNSTYRVVSVLTVLHQDWLNGKEYKCKVSNKALPAPIEKTISKAKGQPREPQVYTLPPSRDELTKNQVSLTCLVKGFYPSDIAVEWESNGQPENNYKTTPPVLDSDGSFFLYSKLTVDKSRWQQGNVFSCSVMHEALHNHYTQKSLSLSPGK
modifications: N-terminal residue may be glutamine (Q) or pyroglutamic acid (pE) or a mixture thereof; C-terminal residue may be cleaved off
notes: the N-terminus of TTP-3000 was not confirmed by experiment; also called TT3; three domain RAGE fusion protein
